Experimental data: patent US5273879, “Amplification method for polynucleotide assays” (Syntex (U.S.A.) Inc.)

Target: Klenow fragment DNA polymerase (UniProt P00582 P00582:324-928)
Experiment: primer extension, 7 mM MgCl2, 50 mM NaCl, 37 C
Conditions: tags: Pharmacia Lot NM 92818; label: 5'-32P on 17 mer
Protocol: The 120 mer (1 μg=25 pmoles) was incubated with a ten-fold molar excess (1.4 μg=250 pmoles) of 17 mer including all of the radioactively labeled 17 mer described above at 60° C. for 5 minutes and then slowly cooled over 30 minutes to 37° C. in a volume of 20.2 μl in 1.3×Klenow buffer (1×Klenow buffer is 7 mM Tris-HCl (pH 7.5), 7 mM MgCl_2, 50 mM NaCl). To this cooled reaction mix was added 2 μl of a solution of 0.4 mM dATP, dCTP, dGTP, dTTP (final conc.=32 μM of each dNTPs), 1.8 μl of 0.1M dithiothreitol (final conc.=[…]) and 7.2 units of Klenow polymerase (Pharmacia Lot #NM 92818) in a final concentration of 1×Klenow buffer. This reaction was incubated at 37° C. for 30 minutes. An additional 7.2 units of Klenow polymerase (1 μl volume) was added and the reaction was continued at 37° C. for one hour.
The reaction products were ethanol precipitated by the addition of 375 μl of 0.3M Na Acetate (pH 5.4) and 1.1 ml ethanol (−20° C.), followed by spinning at 15,000 g's for 30 minutes. The precipitated DNA was then resuspended in 25 μl of H_2O and reprecipitated with 1 ml of 100% ethanol (4° C.) and centrifugation as above. The supernatant was removed and the precipitated DNA pellet dried under vacuum.

Chain of Klenow fragment DNA polymerase (P00582 324-928, one chain of several): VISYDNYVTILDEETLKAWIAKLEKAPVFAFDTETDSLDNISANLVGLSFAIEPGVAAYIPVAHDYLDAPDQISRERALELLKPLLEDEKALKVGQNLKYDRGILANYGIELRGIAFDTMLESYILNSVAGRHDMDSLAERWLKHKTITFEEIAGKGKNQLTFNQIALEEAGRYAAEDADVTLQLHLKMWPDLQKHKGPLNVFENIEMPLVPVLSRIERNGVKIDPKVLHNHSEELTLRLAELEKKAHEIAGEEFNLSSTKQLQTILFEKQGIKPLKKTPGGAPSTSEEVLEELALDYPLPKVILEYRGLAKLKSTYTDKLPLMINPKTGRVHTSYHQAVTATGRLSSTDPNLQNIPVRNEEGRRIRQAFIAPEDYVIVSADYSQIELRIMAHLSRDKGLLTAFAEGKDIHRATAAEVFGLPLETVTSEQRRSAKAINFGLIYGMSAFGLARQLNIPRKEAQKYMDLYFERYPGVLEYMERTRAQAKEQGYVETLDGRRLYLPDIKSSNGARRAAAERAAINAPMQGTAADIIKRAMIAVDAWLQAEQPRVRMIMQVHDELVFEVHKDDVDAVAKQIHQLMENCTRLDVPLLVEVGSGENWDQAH

B1: 120 mer repeating template / 17 mer primer, extended (dsDNA)
DNA 1: CGGGGAATTCTTTAAATATTCCTTTAAACCTACCTTTAAACCTACCTTTAAACCTACCTTTAAACCTACCTTTAAACCTACCTTTAAACCTACCTTTAAATATTCCGAATTCACTGGCCG
DNA 2: CGGCCAGTGAATTCGGA
Does B1 bind?
Result: binds
